Experimental data: patent US20090214574A1 (AFFIMED, published 2009)

What was measured:
[1] = biological target: T1, commercially available recombinant CD16B (Allele NA-2; BSA free; RD Systems) (UniProt O75015 17-200, limits assumed); experiment: ELISA, recombinant CD16B coated at 80 nM
T1 construct: also called recombinant CD16B-Fc
Description: (§1) FIG. 3: ELISA on recombinant CD16A-Fc and CD16B. Recombinant CD16A-Fc and CD16B proteins were coated at 80 nM in 0.1 M NaHCO₃, pH 8.8. Wells were blocked with PBS, 2% skimmed milk. The binding of the scFv to the recombinant proteins and to gp34-Fc (negative control) was detected using an anti-c-Myc-HRP conjugate (10 μg/ml). […] Coated recombinant CD16B was directly detected by staining with an anti-His-HRP (1 μg/mL) and coating of the Fc-Fusion proteins was tested by an anti-human IgG-HRP conjugate (0.5 μg/mL). As HRP-substrate, 50 μL of TMB were used. After termination of the reaction with 50 μL 0.5 M H₂SO₄, absorbance was measured at 450 nm.
(§2) In order to generate further supporting data concerning the CD16A specificity of the scFvs, an ELISA was performed using the CD16A-Fc fusion protein (Example 1) and commercially available recombinant CD16B-Fc (Allele NA-2; BSA free; RD Systems). A gp34-Fc fusion protein was used as a negative control. The recombinant proteins were coated overnight at a concentration of 80 nM in 100 mM NaHCO₃ at pH 8.8.
(§3) Detection of scFv bound to the recombinant proteins was carried out by using an anti-c-myc-HRP conjugate (10 μg/ml). […] Binding to the recombinant CD16B was tested by directly staining with anti-His-HRP (1 μg/mL) and binding to the Fc-Fusion proteins was tested by an anti-human IgG-HRP conjugate (0.15 μg/mL).

[2] = biological target: T2, NKp46 extracellular domain fused to zeta chain, on transiently transfected HEK-293 cells (293/NKp46) (human, UniProt O76036 22-258; P20963 31-164); experiment: flow cytometry on 293/NKp46 cells; scFv, anti-hexa His MAb 13/45/31-2, FITC goat anti-mouse IgG; MFI minus secondary reagents alone
T2 construct: extracellular domain;domain: transmembrane and cytoplasmic domain; On the cell surface; also called NKp46-transfectants; pcDNA3-NKp46-zeta
T2 sequence (O76036 other isoform, or with tags, fused parts or gaps limits assumed): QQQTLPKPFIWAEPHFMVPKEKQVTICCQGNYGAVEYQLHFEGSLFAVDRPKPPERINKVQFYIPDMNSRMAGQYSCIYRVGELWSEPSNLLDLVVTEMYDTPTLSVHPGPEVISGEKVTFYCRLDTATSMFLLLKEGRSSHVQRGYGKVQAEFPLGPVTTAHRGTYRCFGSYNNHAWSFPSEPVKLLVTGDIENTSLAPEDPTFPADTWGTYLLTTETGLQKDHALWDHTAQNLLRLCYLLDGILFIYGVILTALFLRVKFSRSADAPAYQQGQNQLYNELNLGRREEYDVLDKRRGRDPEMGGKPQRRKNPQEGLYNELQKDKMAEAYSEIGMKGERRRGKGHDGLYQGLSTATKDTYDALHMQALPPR
Description: (§4) The mean fluorescence intensities obtained from flow cytometric analysis were corrected by subtracting the fluorescence values from cell stainings with the secondary reagents alone, and plotted in the diagram.
(§5) For flow cytometric analysis, the following cell lines were used: BW and BW/CD16A transfectants were cultured as described previously. […] The transient transfections were performed using the calcium phosphate method as described in Example 1 and were used for flow cytometric staining and analysis two days after transient transfection. Flow cytometric staining and analysis was performed as essentially described before.

Streptavidin = biological target: T3, Streptavidin (UniProt P22629 37-163, limits assumed); experiment: ELISA on coated streptavidin; periplasmic extract, anti-Penta His-HRP
T3 construct: also called streptavidin alone
T3 sequence (P22629 37-163 limits assumed): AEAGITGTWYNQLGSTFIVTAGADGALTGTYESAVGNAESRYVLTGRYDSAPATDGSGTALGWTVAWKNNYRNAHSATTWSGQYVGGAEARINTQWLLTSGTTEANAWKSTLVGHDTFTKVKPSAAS

[3] = biological target: T4, human CD16B (NA-2 allele) on stably transfected HEK-293 cells (293/CD16B) (human, UniProt O75015 17-200); experiment: flow cytometry on 293/CD16B cells; scFv, anti-hexa His MAb 13/45/31-2, FITC goat anti-mouse IgG; MFI minus secondary reagents alone
T4 construct: whole, on cells
T4 sequence (O75015 17-200 N65S): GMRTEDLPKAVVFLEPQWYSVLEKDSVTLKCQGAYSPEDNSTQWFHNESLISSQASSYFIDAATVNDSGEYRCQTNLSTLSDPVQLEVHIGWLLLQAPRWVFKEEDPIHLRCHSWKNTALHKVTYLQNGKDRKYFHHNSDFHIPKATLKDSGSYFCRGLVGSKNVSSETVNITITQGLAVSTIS
Description: as §4, §5

[4] = biological target: T5, human CD16A-Fc^48R/158V fusion protein (human, UniProt P08637 17-208, limits assumed); experiment: SPR, BIAcore 2000, CD16A-Fc immobilized on CM5, koff/kon
T5 construct: Secreted soluble fusion made in HEK-293 cells; also called CD16-Fc; CD16A Fc-fusion protein; not shown: Fc portion of human IgG1
T5 sequence (P08637 17-208 L66R/F176V limits assumed): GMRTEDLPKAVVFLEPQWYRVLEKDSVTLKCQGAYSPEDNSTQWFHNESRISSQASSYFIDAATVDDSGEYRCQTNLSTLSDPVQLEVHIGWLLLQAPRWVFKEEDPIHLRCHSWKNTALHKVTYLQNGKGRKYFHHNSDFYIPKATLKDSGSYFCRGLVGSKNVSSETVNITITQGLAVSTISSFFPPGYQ
Description: (§6) The affinity constants (KD values) of the scFv were determined by SPR using the BIAcore 2000 biosensor system (Amersham-Pharmacia). The CD16A-Fc fusion protein and BSA used as a negative control were immobilized on the carboxymethyldextran-coated sensor chip CM5 using conventional NHS/EDC chemistry for the amine coupling procedure (BIAcore). Purified scFvs were diluted in HBS-EP buffer (BIAcore, Uppsala, Sweden). Binding data was generated by passing varying concentrations of the scFv antibodies (100 nM, 200 nM, 400 nM, 800 nM and 1600 nM) over the immobilized antigen. […] All SPR measurements were performed at a constant flow rate of 20 μL/min in HBS-EP buffer at 25° C. Each injected sample (100 μl) was in contact with antigen for 5 minutes. The dissociation was followed for 30 minutes. After each cycle, the surface of the sensor chip was flushed with HBS-EP buffer. Signals from the control channel coated with BSA were automatically subtracted. Kinetic constants were calculated according to the 1/1 Langmuir binding model using the BIAevaluation version 3.0 software (BIAcore).

[5] = biological target: T5, human CD16A-Fc^48R/158V fusion protein; experiment: SPR, BIAcore 2000, CD16A-Fc immobilized on CM5, 1:1 Langmuir
Description: as §6

[6] = biological target: T5, human CD16A-Fc^48R/158V fusion protein; experiment: SPR, steady state analysis (column Keq)
Description: as §6

[7] = biological target: T6, native CD16B on human polymorphonuclear cells (neutrophilic granulocytes) (human, UniProt O75015 17-200); experiment: flow cytometry on freshly isolated PMN; scFv, anti-(His)6 MAb, FITC goat anti-mouse IgG; MFI minus secondary reagents alone
T6 construct: whole, on cells; also called PMN; CD16B-positive granulocytes
T6 sequence (O75015 17-200): as the sequence (O75015 17-200 N65S) above, with S49N counted along it
Description: Polymorphonuclear cells (PMN) and natural killer (NK) cells were isolated from peripheral blood from a healthy donor and used for flow cytometric staining and analysis. […] All scFv were used at a concentration of 50 μg/mL and were detected with 10 μg/mL anti-(His)₆ followed by 15 μg/mL FITC-conjugated goat anti-mouse IgG. The mean fluorescence intensities obtained from flow cytometric analysis were corrected by subtracting the fluorescence values from cell stainings with the secondary reagents alone and were plotted in the diagram.
Enrichment of NK cells was performed by negative selection as described above.

NKp46-Fc [8] = biological target: T7, NKp46-Fc (UniProt O76036 22-258, limits assumed); experiment: Western blot on NKp46-Fc
T7 construct: Negative control protein; also called NKp46-Fc control protein; not shown: Fc part, not described
T7 sequence (O76036 22-258 limits assumed): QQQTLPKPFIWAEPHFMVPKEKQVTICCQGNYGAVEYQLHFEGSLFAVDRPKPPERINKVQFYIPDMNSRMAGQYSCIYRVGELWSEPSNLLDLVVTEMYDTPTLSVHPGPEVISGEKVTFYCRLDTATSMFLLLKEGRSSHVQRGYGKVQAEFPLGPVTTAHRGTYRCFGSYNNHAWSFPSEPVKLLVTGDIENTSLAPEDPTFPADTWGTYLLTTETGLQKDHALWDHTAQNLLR
Description: For further characterization all of the anti-CD16A scFv were tested for binding in Western Blot on recombinant CD16A-Fc and NKp46-Fc.
The proteins were transferred on a nitrocellulose membrane by electroblotting. After staining with Ponceau S, the membrane was cut into strips of 5 mm width. Each nitrocellulose strip was individually incubated with scFv (4 μg/ml) in PBS, 0.1% tween, 2% skimmed milk. Detection was carried out with the anti-Penta His HRP-conjugate (1 μg/mL) using diaminobenzidine (DAB) as a peroxidase substrate. […] As an additional positive control, a goat anti-human IgG HRP-conjugate (0.16 μg/mL) was used for detection of the Fc portion of the fusion proteins.

[9] = biological target: T5, human CD16A-Fc^48R/158V fusion protein; experiment: SPR, kinetic and steady state analysis
Description: as §6

[10] = biological target: T5, human CD16A-Fc^48R/158V fusion protein; experiment: SPR, BIAcore 2000, antigen immobilized
Description: as §6

[11] = biological target: T5, human CD16A-Fc^48R/158V fusion protein; experiment: surface plasmon resonance
CD16B-Fc^NA1 = biological target: T8, CD16B-Fc^NA1 (human, UniProt O75015 17-200); experiment: ELISA on 200 ng coated antigen; scFv, anti-His-HRP (1 µg/ml)
T8 construct: extracellular domain; not shown: Fc region carried by the pSEC plasmid
T8 sequence (O75015 other isoform, or with tags, fused parts or gaps): as the sequence (O75015 17-200 N65S) above, with S20R, S49N, N66D, I90V counted along it
Description: (§7) FIG. 7: ELISA on different CD16 isoforms. […] An anti-NKp46 scFv used as a primary antibody acted as a negative control.
(§8) Detection of scFv bound to the recombinant proteins was carried out using an anti-His-HRP conjugate (1 μg/ml).

CD16B-Fc^NA2 = biological target: T9, CD16B-Fc^NA2 (human, UniProt O75015 17-200); experiment: as above
T9 construct: extracellular domain; not shown: Fc region carried by the pSEC plasmid
T9 sequence (O75015 17-200 N65S): as the sequence (O75015 17-200 N65S) above
Description: as §7, §8

NKp46-Fc [12] = biological target: T7, NKp46-Fc; experiment: as above
Description: as §7, §8

CD16B-Fc^SH = biological target: T10, CD16B-Fc^SH (human, UniProt O75015 17-200); experiment: as above
T10 construct: extracellular domain; not shown: Fc region carried by the pSEC plasmid
T10 sequence (O75015 17-200 N65S/A78D): as the sequence (O75015 17-200 N65S) above, with A62D counted along it
Description: as §7, §8

[13] = biological target: T5, human CD16A-Fc^48R/158V fusion protein; experiment: SPR, BIAcore 2000, antigen immobilized, koff/kon
Description: as §6

[14] = biological target: T1, commercially available recombinant …; experiment: ELISA on recombinant CD16B coated at 80 nM; scFv detected with anti-c-Myc-HRP (10 µg/ml)
Description: as §1, §2, §3

T1 sequence (O75015 17-200 N65S limits assumed): as the sequence (O75015 17-200 N65S) above

Binder	binding result [1]	binding result [2]	binding result (Streptavidin)	binding result [3]	Kd [4]	koff [5]	kon [5]	Kd [6]	binding result [7]	binding result (NKp46-Fc [8])	fold improvement of affinity over parental clone 50NI [9]	koff [10]	kon [10]	Kd [11]	binding result (CD16B-Fc^NA1)	binding result (CD16B-Fc^NA2)	binding result (NKp46-Fc [12])	binding result (CD16B-Fc^SH)	Kd [13]	binding result [14]
human anti-CD16A scFv 50NI (scFv, also called clone 50NI; parental clone) scFv: EVQLVQSGAEVKKPGESLKVSCKASGYTFTSYYMHWVRQAPGQGLEWMGIINPSGGSTSYAQKFQGRVTMTRDTSTSTVYMELSSLRSEDTAVYYCARGSAYYYDFADYWGQGTLVTVSSGSASAPTLKLEEGEFSEARVSYELMQPPSVSVSSGQTASIPCSGDKLEEKYVSWYQQRPGQSPVLVIYQDNKRPSGIPERFSGSNSGNTATLTISGTQAMDEADYYCQVWDNYSVLFGGGTKLTVLGQPKAAPSVTLFPPSAAAGSEQKLISEEDLNSHHHHHH	no binding	no binding (tested: 50 µg/mL)	no binding	no binding (tested: 50 µg/mL)	1230 nM	0.0217 s⁻¹	17600 M⁻¹ s⁻¹	2560 nM	no binding (tested: 50 µg/mL)	no binding (tested: 4 µg/ml)	–	–	–	–	–	–	–	–	–	–
affinity matured anti-CD16A scFv 4-LS21 (scFv, IMAC-purified from pSKK2) scFv: EVQLVQSGAEVKKPGESLKVSCKASGYTFTSYYMHWVRQAPGQGLEWMGIINPSGGSTSYAQKFQGRVTMTRDTSTSTVYMELSSLRSEDTAVYYCARGSAYYYDFADYWGQGTLVTVSSGSASAPTLKLEEGEFSEARVQPVLTQPSSVSVAPGQTATISCGGHNIGSKNVHWYQQRPGQSPVLVIYQDNKRPSGIPERFSGSNSGNTATLTISGTQAMDEADYYCQVWDNYSVLFGGGTKLTVLGQPKAAPSVTLFPPSAAAGSEQKLISEEDLNSHHHHHH	–	no binding (tested: 50 µg/mL)	–	no binding (tested: 50 µg/mL)	113 nM	0.0063 s⁻¹	56000 M⁻¹ s⁻¹	203 nM	no binding (tested: 50 µg/mL)	–	> 20 fold	0.00342 s⁻¹	55400 M⁻¹ s⁻¹	~50 nM	no binding (tested: 4 µg/ml)	no binding (tested: 4 µg/ml)	no binding (tested: 4 µg/ml)	no binding (tested: 4 µg/ml)	61.7 nM	no binding (tested: not given)
